Experimental data as given in PMC4787834.
Where a chain is given by its changes, count along the chain named.

T1: MsmUdgX (Mycobacterium smegmatis mc2 155, UniProt A0QP43 1-209)
T1 sequence: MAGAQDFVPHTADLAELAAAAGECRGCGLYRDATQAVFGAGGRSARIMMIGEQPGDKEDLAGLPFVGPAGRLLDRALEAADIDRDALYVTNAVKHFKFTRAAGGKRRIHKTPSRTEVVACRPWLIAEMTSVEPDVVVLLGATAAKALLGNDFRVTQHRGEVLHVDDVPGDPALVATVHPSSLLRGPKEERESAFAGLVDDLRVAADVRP

T2: MsmUdgX F4 (Mycobacterium smegmatis mc2 155, UniProt A0QP43 1-209, Q53A)
T2 sequence: T1 sequence with Q53A

B1: SSU9:G (dsDNA)
DNA 1: CTCAAGTGUAGGCATGCAAGAGCT
DNA 2: CTTGCATGCCTGCACTTGAGTGCA
modifications: deoxyuridine at position 9 opposite G

Tests used:
MsmUdgX [1] = biological target: T1, MsmUdgX; experiment: 8 M urea-PAGE complex shift
MsmUdgX [2] = biological target: T1, MsmUdgX; experiment: SDS-PAGE complex shift
MsmUdgX F4 = biological target: T2, MsmUdgX F4; experiment: 8 M urea-PAGE complex shift

Binder | binding result (MsmUdgX [1]) | binding result (MsmUdgX [2]) | binding result (MsmUdgX F4)
B1 | binds | – | –
TUTT (ssDNA, deoxyuridine at position 2; 5' phosphate) [pTUTT] | – | binds | –
CTCAAGTGUAGGCATGCAAGAGCT (ssDNA, deoxyuridine at position 9) [SSU9] | binds | – | binds
